According to patent US20240109955A1:

Legend:
Experiment in all cases: cell-based or functional assay
[1] = biological target: SARS-CoV-2 Omicron variant BQ.1.1 spike protein (SARS-CoV-2)
[2] = biological target: SARS-CoV-2 Delta variant spike protein (SARS-CoV-2)
[3] = biological target: SARS-CoV-2 Omicron variant XBB spike protein (SARS-CoV-2)
[4] = biological target: SARS-CoV-2 Omicron variant BF.7 spike protein (SARS-CoV-2)
[5] = biological target: SARS-CoV-2 Omicron variant B.1.1.529 spike protein (SARS-CoV-2)
[6] = biological target: SARS-CoV-2 Omicron variant BA.4/5 spike protein (SARS-CoV-2)
[7] = biological target: SARS-CoV-2 Omicron variant BA.4.6 spike protein (SARS-CoV-2)
[8] = biological target: SARS-CoV-2 Omicron variant BA.2.75.2 spike protein (SARS-CoV-2)
[9] = biological target: SARS-CoV-2 Omicron variant BQ.1 spike protein (SARS-CoV-2)
[10] = biological target: SARS-CoV-2 spike protein, Omicron variant XBB (SARS-CoV-2)
[11] = biological target: SARS-CoV-2 spike protein, Omicron variant BQ.1.1 (SARS-CoV-2)
[12] = biological target: SARS-CoV-2 spike protein, Omicron variant BQ.1 (SARS-CoV-2)
[13] = biological target: SARS-CoV-2 spike protein, Omicron variant BA.4/5 (SARS-CoV-2)
[14] = biological target: SARS-CoV-2 spike protein, Omicron variant BA.2.75.2 (SARS-CoV-2)

B1: MX1022 (bispecific antibody)
chain: DTVMTQSPLSLPVTPGEPASISCRSSQSLLNSNGYNYLDWYVQKPGQSPQLLIYLGSNRASGVPDRFSGSGSGTDFTLKISRVEAEDVGVYYCMQPLQTPLFTFGPGTKVEIKGGSSGEIVMTQSPAILSVSPGERATLSCRASQSVAINLAWYQQKPGQAPRLLIYAASSRATGIPGRFSGSGSETNFTLTISSLQSGDFAVYYCQQYITWPPSYTFGQGTKLEIKGGGGSGGSGSGGGGSASGSGEVQLVESGGALIQPGGSLRLSCAASGIIVSANYMSWVRQAPGKGLEWVSVIYSGGSTFYADSVKGRFTISRDNSKNTLYLEMNSLRAEDTAVYYCARDAPILGVSDWGQGTLVTVSSGGSSGQVTLRESGPALVKPTQTLTLTCTFSGFSLSTRGVCVSWIRQPPGKALEWLAFIDWDDDKYYNTSLKTRLTISKDTSKNQVVLTMTNVHPVDTATYYCARISSHHGSSWCTTFDYWGQGALVTVSAASGGSGDKTHTCPPCPAPELLGGPSVFLFPPKPKDTLMISRTPEVTCVVVDVSHEDPEVKFNWYVDGVEVHNAKTKPREEQYNSYVVSVLTVLHQDWLNGKEYKCKVSNKALPAPIEKTISKAKGQPREPQVYTLPPSRDELTKNQVSLTCLVKGFYPSDIAVEWESNGQPENNYKTTPPVLDSDGSFFKKLTVDKSRWQQGNVFSCSVLHEALHSHYTQKSLSLSPG
IC50, pseudovirus neutralization [1]: 1.13 ng/mL
IC80, pseudovirus neutralization [1]: 6.72 ng/mL
IC50, pseudovirus neutralization [2]: 31.5 ng/mL
IC80, pseudovirus neutralization [2]: 25.4 ng/mL
IC50, pseudovirus neutralization [3]: 5.85 ng/mL
IC80, pseudovirus neutralization [3]: 12.4 ng/mL
IC50, pseudovirus neutralization [4]: 2.38 ng/mL
IC80, pseudovirus neutralization [4]: 8.29 ng/mL
IC50, pseudovirus neutralization [5]: 4.22 ng/mL
IC80, pseudovirus neutralization [5]: 4.74 ng/mL
IC50, pseudovirus neutralization [6]: 1.98 ng/mL
IC80, pseudovirus neutralization [6]: 3.33 ng/mL
IC50, pseudovirus neutralization [7]: 4.9 ng/mL
IC80, pseudovirus neutralization [7]: 8.82 ng/mL
IC50, pseudovirus neutralization [8]: 0.89 ng/mL
IC80, pseudovirus neutralization [8]: 2.8 ng/mL
IC50, pseudovirus neutralization [9]: 6.58 ng/mL
IC80, pseudovirus neutralization [9]: 19.2 ng/mL

B2: MX1070 (protein)
chain 1: QTVVTQEPSFSVSPGGTVTLTCGLSSGSVSTAYFPSWYQQTPGQAPRTLIYGTNTRSSGVPDRFSGSILGNKAALTITGAQADDESDYYCVLYMGRGIVVFGGGTKLTVLGGSSGEIVLTQSPGTLSLSPGETATLSCRASQSFSSDLAWYQQKPGQAPRLLIYGASSRATGIPDRFSGSGSGTDFTLTISRLEPADFAVYYCQQYGSSPPVTFGGGTKVEIKGGGGSGGSGSGGGGSASGSGEVQLVESGGGLIQPGGSLRLSCAASGVIVSYNYMNWVRQAPGKGLEWVSVIYSGGSTFYADSVRGRFTISRDNSKNTLYLQMNSLRAEDTAVYYCARDLGPAGAFDIWGLGTMVTVSSGGSSGQVQLVESGGGVVQPGRSLRLSCAASGFTLSSYGMHWVRQAPGKGLEWVAVISYDGSNKYYVDSVKGRFTISRDNSKNTLYLQMNSLRAEDTAVYYCRWAYWELLPDYYYGMDVWGQGTTVTVSSASGGSGDKTHTCPPCPAPELLGGPSVFLFPPKPKDTLMISRTPEVTCVVVDVSHEDPEVKFNWYVDGVEVHNAKTKPREEQYNSYVVSVLTVLHQDWLNGKEYKCKVSNKALPAPIEKTISKAKGQPREPQVYTLPPCRDELTKNQVSLWCLVKGFYPSDIAVEWESNGQPENNYKTTPPVLDSDGSFFKKLTVDKSRWQQGNVFSCSVLHEALHSHYTQKSLSLSPG
chain 2: DTVMTQSPLSLPVTPGEPASISCRSSQSLLNSNGYNYLDWYVQKPGQSPQLLIYLGSNRASGVPDRFSGSGSGTDFTLKISRVEAEDVGVYYCMQPLQTPLFTFGPGTKVEIKGGSSGEIVLTQSPGTLSLSPGETATLSCRASQSFSSDLAWYQQKPGQAPRLLIYGASSRATGIPDRFSGSGSGTDFTLTISRLEPADFAVYYCQQYGSSPPVTFGGGTKVEIKGGGGSGGSGSGGGGSASGSGEVQLVESGGGLIQPGGSLRLSCAASGVIVSYNYMNWVRQAPGKGLEWVSVIYSGGSTFYADSVRGRFTISRDNSKNTLYLQMNSLRAEDTAVYYCARDLGPAGAFDIWGLGTMVTVSSGGSSGQVTLRESGPALVKPTQTLTLTCTFSGFSLSTRGVCVSWIRQPPGKALEWLAFIDWDDDKYYNTSLKTRLTISKDTSKNQVVLTMTNVHPVDTATYYCARISSHHGSSWCTTFDYWGQGALVTVSAASGGSGDKTHTCPPCPAPELLGGPSVFLFPPKPKDTLMISRTPEVTCVVVDVSHEDPEVKFNWYVDGVEVHNAKTKPREEQYNSYVVSVLTVLHQDWLNGKEYKCKVSNKALPAPIEKTISKAKGQPREPQVCTLPPSRDELTKNQVSLSCAVKGFYPSDIAVEWESNGQPENNYKTTPPVLDSDGSFFLVSKLTVDKSRWQQGNVFSCSVLHEALHSHYTQKSLSLSPG
IC50, pseudovirus neutralization [10]: 2.9 ng/mL
IC80, pseudovirus neutralization [10]: 9.71 ng/mL
IC50, pseudovirus neutralization [11]: 4.06 ng/mL
IC80, pseudovirus neutralization [11]: 11 ng/mL
IC50, pseudovirus neutralization [12]: 4.64 ng/mL
IC80, pseudovirus neutralization [12]: 9.16 ng/mL
IC50, pseudovirus neutralization [13]: 2.49 ng/mL
IC80, pseudovirus neutralization [13]: 3.58 ng/mL
IC50, pseudovirus neutralization [14]: 2.4 ng/mL
IC80, pseudovirus neutralization [14]: 4.16 ng/mL

B3: MX1073 (protein)
chain 1: QTVVTQEPSFSVSPGGTVTLTCGLSSGSVSTAYFPSWYQQTPGQAPRTLIYGTNTRSSGVPDRFSGSILGNKAALTITGAQADDESDYYCVLYMGRGIVVFGGGTKLTVLGGSSGEIVLTQSPGTLSLSPGETATLSCRASQSFSSDLAWYQQKPGQAPRLLIYGASSRATGIPDRFSGSGSGTDFTLTISRLEPADFAVYYCQQYGSSPPVTFGGGTKVEIKGGGGSGGSGSGGGGSASGSGEVQLVESGGGLIQPGGSLRLSCAASGVIVSYNYMNWVRQAPGKGLEWVSVIYSGGSTFYADSVRGRFTISRDNSKNTLYLQMNSLRAEDTAVYYCARDLGPAGAFDIWGLGTMVTVSSGGSSGQVQLVESGGGVVQPGRSLRLSCAASGFTLSSYGMHWVRQAPGKGLEWVAVISYDGSNKYYVDSVKGRFTISRDNSKNTLYLQMNSLRAEDTAVYYCRWAYWELLPDYYYGMDVWGQGTTVTVSSASGGSGDKTHTCPPCPAPELLGGPSVFLFPPKPKDTLMISRTPEVTCVVVDVSHEDPEVKFNWYVDGVEVHNAKTKPREEQYNSYVVSVLTVLHQDWLNGKEYKCKVSNKALPAPIEKTISKAKGQPREPQVYTLPPCRDELTKNQVSLWCLVKGFYPSDIAVEWESNGQPENNYKTTPPVLDSDGSFFKKLTVDKSRWQQGNVFSCSVLHEALHSHYTQKSLSLSPG
chain 2: QTVVTQEPSFSVSPGGTVTLTCGLSSGSVSTAYFPSWYQQTPGQAPRTLIYGTNTRSSGVPDRFSGSILGNKAALTITGAQADDESDYYCVLYMGRGIVVFGGGTKLTVLGGSSGDTVMTQSPLSLPVTPGEPASISCRSSQSLLNSNGYNYLDWYVQKPGQSPQLLIYLGSNRASGVPDRFSGSGSGTDFTLKISRVEAEDVGVYYCMQPLQTPLFTFGPGTKVEIKGGGGSGGSGSGGGGSASGSGQVTLRESGPALVKPTQTLTLTCTFSGFSLSTRGVCVSWIRQPPGKALEWLAFIDWDDDKYYNTSLKTRLTISKDTSKNQVVLTMTNVHPVDTATYYCARISSHHGSSWCTTFDYWGQGALVTVSAGGSSGQVQLVESGGGVVQPGRSLRLSCAASGFTLSSYGMHWVRQAPGKGLEWVAVISYDGSNKYYVDSVKGRFTISRDNSKNTLYLQMNSLRAEDTAVYYCRWAYWELLPDYYYGMDVWGQGTTVTVSSASGGSGDKTHTCPPCPAPELLGGPSVFLFPPKPKDTLMISRTPEVTCVVVDVSHEDPEVKFNWYVDGVEVHNAKTKPREEQYNSYVVSVLTVLHQDWLNGKEYKCKVSNKALPAPIEKTISKAKGQPREPQVCTLPPSRDELTKNQVSLSCAVKGFYPSDIAVEWESNGQPENNYKTTPPVLDSDGSFFLVSKLTVDKSRWQQGNVFSCSVLHEALHSHYTQKSLSLSPG
IC50, pseudovirus neutralization [10]: 9.3 ng/mL
IC80, pseudovirus neutralization [10]: 24 ng/mL
IC50, pseudovirus neutralization [11]: 5.77 ng/mL
IC80, pseudovirus neutralization [11]: 24.1 ng/mL
IC50, pseudovirus neutralization [12]: 1.9 ng/mL
IC80, pseudovirus neutralization [12]: 10.8 ng/mL
IC50, pseudovirus neutralization [13]: 2.78 ng/mL
IC80, pseudovirus neutralization [13]: 4.28 ng/mL
IC50, pseudovirus neutralization [14]: 1.81 ng/mL
IC80, pseudovirus neutralization [14]: 3.35 ng/mL

B4: MX1021 (bispecific antibody)
chain: QTVVTQEPSFSVSPGGTVTLTCGLSSGSVSTAYFPSWYQQTPGQAPRTLIYGTNTRSSGVPDRFSGSILGNKAALTITGAQADDESDYYCVLYMGRGIVVFGGGTKLTVLGGSSGEIVMTQSPAILSVSPGERATLSCRASQSVAINLAWYQQKPGQAPRLLIYAASSRATGIPGRFSGSGSETNFTLTISSLQSGDFAVYYCQQYITWPPSYTFGQGTKLEIKGGGGSGGSGSGGGGSASGSGEVQLVESGGALIQPGGSLRLSCAASGIIVSANYMSWVRQAPGKGLEWVSVIYSGGSTFYADSVKGRFTISRDNSKNTLYLEMNSLRAEDTAVYYCARDAPILGVSDWGQGTLVTVSSGGSSGQVQLVESGGGVVQPGRSLRLSCAASGFTLSSYGMHWVRQAPGKGLEWVAVISYDGSNKYYVDSVKGRFTISRDNSKNTLYLQMNSLRAEDTAVYYCRWAYWELLPDYYYGMDVWGQGTTVTVSSASGGSGDKTHTCPPCPAPELLGGPSVFLFPPKPKDTLMISRTPEVTCVVVDVSHEDPEVKFNWYVDGVEVHNAKTKPREEQYNSYVVSVLTVLHQDWLNGKEYKCKVSNKALPAPIEKTISKAKGQPREPQVYTLPPSRDELTKNQVSLTCLVKGFYPSDIAVEWESNGQPENNYKTTPPVLDSDGSFFKKLTVDKSRWQQGNVFSCSVLHEALHSHYTQKSLSLSPG
IC50, pseudovirus neutralization [1]: 2.77 ng/mL
IC80, pseudovirus neutralization [1]: 28.5 ng/mL
IC50, pseudovirus neutralization [2]: 64.8 ng/mL
IC80, pseudovirus neutralization [2]: 219 ng/mL
IC50, pseudovirus neutralization [3]: 14.7 ng/mL
IC80, pseudovirus neutralization [3]: 61.1 ng/mL
IC50, pseudovirus neutralization [4]: 11.3 ng/mL
IC80, pseudovirus neutralization [4]: 31.7 ng/mL
IC50, pseudovirus neutralization [5]: 2.91 ng/mL
IC80, pseudovirus neutralization [5]: 13.1 ng/mL
IC50, pseudovirus neutralization [6]: 13.8 ng/mL
IC80, pseudovirus neutralization [6]: 26 ng/mL
IC50, pseudovirus neutralization [7]: 12.9 ng/mL
IC80, pseudovirus neutralization [7]: 41.4 ng/mL
IC50, pseudovirus neutralization [8]: 3.73 ng/mL
IC80, pseudovirus neutralization [8]: 13.2 ng/mL
IC50, pseudovirus neutralization [9]: 11.3 ng/mL
IC80, pseudovirus neutralization [9]: 51.9 ng/mL
